The source of these data is patent publication US20250276077A1 (IMMUNOME, published 2025).

Where a chain is given by its changes, count along the chain named.

B1: AB-009816 (antibody, mouse IgG2a, V domains shown)
VH: QVQLQQWGAGLLKPSETLSLTCAVYGGSFSDYYWSWIRQPPGKGLEWIGEVNHRGSINYNNYNPSLKSRVTISVDASKNQFSLKLTSVTAADTAVYYCAKPLRPHCTNGVCYSGDAFDIWGQGTMVTVAS
VL: SYVLTQPPSVSVAPGQTARITCGGNNIGSKNVHWYQQKPGQAPVLVVYDDSDRPSGIPEQFSGSNSGNTATLTISRVEAGDEADYYCQVWDSSSDHLVFGGGTKLTVL
B2: AB-009812 (antibody, mouse IgG2a, V domains shown)
VH: B1 VH with R54S, A76P
VL: B1 VL
B3: AB-009814 (antibody, mouse IgG2a, V domains shown)
VH: QVQLQQWGAGLLKPSETLSLTCAVYGGSFSDYYWSWIRQPPGKGLEWIGEVNHRGSINYNPSLKSRVTISVDPSKNQFSLKLTSVTAADTAVYYCAKPLRPHCTNGVCYSGDAFDIWGQGTMVTVAS
VL: B1 VL
B4: AB-009817 (antibody, mouse IgG2a, V domains shown)
VH: B1 VH with A76P, G109A
VL: B1 VL
B5: AB-009813 (antibody, mouse IgG2a, V domains shown)
VH: B1 VH with R54A, A76P
VL: B1 VL
B6: AB-010143 (antibody, mouse IgG2a, V domains shown)
VH: B1 VH with A76T
VL: B1 VL with L97V
B7: AB-010144 (antibody, mouse IgG2a, V domains shown)
VH: B1 VH with V51I, A76T
VL: B1 VL
B8: AB-010146 (antibody, mouse IgG2a, V domains shown)
VH: B1 VH with A76T, A129S
VL: B1 VL
B9: AB-010151 (antibody, mouse IgG2a, V domains shown)
VH: B1 VH with V51I, A76T, T86S, A129S
VL: B1 VL
B10: AB-010141 (antibody, mouse IgG2a, V domains shown)
VH: B1 VH with D31G, A76T
VL: B1 VL
B11: AB-010150 (antibody, mouse IgG2a, V domains shown)
VH: B1 VH with A76T, T86S, A129S
VL: B1 VL
B12: AB-010145 (antibody, mouse IgG2a, V domains shown)
VH: B1 VH with A76T, T86S
VL: B1 VL
B13: AB-010148 (antibody, mouse IgG2a, V domains shown)
VH: B1 VH with V51I, A76T, T86S
VL: B1 VL
B14: AB-010147 (antibody, mouse IgG2a, V domains shown)
VH: B1 VH with A76T
VL: B1 VL with Q60R
B15: AB-010367 (antibody, V domains shown)
VH: B1 VH with D31G, V51I, R54Q, A76T, T86S
VL: B1 VL with Q60R, L97V
B16: AB-010362 (antibody, mouse IgG2a, V domains shown)
VH: B1 VH with D31G, V51I, A76T, T86S
VL: B1 VL with Q60R
B17: AB-010360 (antibody, mouse IgG2a, V domains shown)
VH: B1 VH with D31G, V51I, A76T, T86S
VL: B1 VL
B18: AB-010359 (antibody, V domains shown)
VH: B1 VH with V51I, A76T, T86S
VL: B1 VL with Q60R, L97V
B19: AB-010358 (antibody, mouse IgG2a, V domains shown)
VH: B1 VH with V51I, A76T, T86S
VL: B1 VL with Q60R
B20: AB-010365 (antibody, V domains shown)
VH: B1 VH with D31G, V51I, R54A, A76T, T86S
VL: B1 VL with Q60R, L97V
B21: AB-010366 (antibody, mouse IgG2a, V domains shown)
VH: B1 VH with D31G, V51I, R54Q, A76T, T86S
VL: B1 VL with L97V
B22: AB-010364 (antibody, mouse IgG2a, V domains shown)
VH: B1 VH with D31G, V51I, R54A, A76T, T86S
VL: B1 VL with L97V
B23: AB-010692 (antibody, V domains shown)
VH: B1 VH with D31G, V51I, A76T, T86S
VL: B1 VL with G23R, Q60R, S92H, L97V
B24: AB-009808 (antibody, mouse IgG2a, V domains shown)
VH: B3 VH with V51I, R54S, I57T, L99F, A126S
VL: B1 VL
B25: AB-009806 (antibody, mouse IgG2a, V domains shown)
VH: B3 VH with V51I, R54S, I57T, L99F, A126S
VL: B1 VL with S29T
B26: AB-009807 (antibody, mouse IgG2a, V domains shown)
VH: B3 VH with S30N, R54S, I57T, N58S, P73T, T83S, L99F, A126S
VL: B1 VL with V44A
B27: AB-009805 (antibody, mouse IgG2a, V domains shown)
VH: QVQLQQWGAGLLKPSETLSLTCAVYGGSLSDYHWSWIRQPPGKGLEWIGEINHSGSTNYNPSLKSRVTISVDTSKNQFSLKLSSVSAADTAVYYCAKPFRPHCTNGVCHSGDAFDIWGQGTMATVSS
VL: B1 VL

One assay deals with T1, Human EphA2 (ephrin receptor A2) on cells (human, UniProt P29317 25-976). Kind of assay: cell-based or functional assay.
T1 sequence (P29317 25-976): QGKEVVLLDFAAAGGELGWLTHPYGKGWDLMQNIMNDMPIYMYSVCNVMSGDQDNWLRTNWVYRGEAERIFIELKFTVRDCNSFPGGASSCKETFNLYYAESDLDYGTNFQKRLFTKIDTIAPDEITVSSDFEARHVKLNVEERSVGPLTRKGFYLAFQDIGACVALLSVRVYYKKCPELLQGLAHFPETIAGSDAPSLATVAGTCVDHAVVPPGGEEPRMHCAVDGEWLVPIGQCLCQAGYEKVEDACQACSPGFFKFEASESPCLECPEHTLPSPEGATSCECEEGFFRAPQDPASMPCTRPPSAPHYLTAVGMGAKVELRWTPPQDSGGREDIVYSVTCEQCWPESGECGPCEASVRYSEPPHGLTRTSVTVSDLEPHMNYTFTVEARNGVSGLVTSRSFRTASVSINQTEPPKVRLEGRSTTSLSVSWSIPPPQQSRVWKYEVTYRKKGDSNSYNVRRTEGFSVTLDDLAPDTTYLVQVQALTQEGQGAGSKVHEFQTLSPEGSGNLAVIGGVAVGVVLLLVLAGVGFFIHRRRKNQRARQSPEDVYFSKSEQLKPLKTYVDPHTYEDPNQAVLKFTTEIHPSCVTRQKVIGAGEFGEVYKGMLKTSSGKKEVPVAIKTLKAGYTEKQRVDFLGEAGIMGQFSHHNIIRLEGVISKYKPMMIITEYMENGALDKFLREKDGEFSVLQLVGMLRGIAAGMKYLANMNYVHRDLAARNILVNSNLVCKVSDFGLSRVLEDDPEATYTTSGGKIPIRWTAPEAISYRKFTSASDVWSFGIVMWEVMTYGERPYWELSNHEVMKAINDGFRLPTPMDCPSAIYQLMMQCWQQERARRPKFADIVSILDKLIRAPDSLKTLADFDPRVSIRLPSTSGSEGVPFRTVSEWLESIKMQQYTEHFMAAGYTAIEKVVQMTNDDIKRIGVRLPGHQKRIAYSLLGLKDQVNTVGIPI
On to B1, for which the “ADCC Delta, A549 cells” value turned out to be 58 and the “ADCC EC50 (nM), A549 cells” value was 12.5 nM.

B2: the “ADCC Delta, A549 cells” value was 41.1 and the “ADCC EC50 (nM), A549 cells” value was found to be 51 nM.

On to B3, for which the “ADCC Delta, A549 cells” value was 36 and the “ADCC EC50 (nM), A549 cells” value was found to be 62.8 nM.

As for B4, the “ADCC Delta, A549 cells” value is 0.

In the case of B5, the “ADCC Delta, A549 cells” value was found to be 39.9 and the “ADCC EC50 (nM), A549 cells” value stood at 26 nM.

The next assay concerns the target T1, Human EphA2 (ephrin receptor A2) on …. Kind of assay: cell-based or functional assay. The source holds these as a separate data set.
Take B6: the “ADCC EC50” value is 25.1 nM.

With B7, the “ADCC EC50” value was 35.8 nM.

Take B8: the “ADCC EC50” value worked out at 66.8 nM.

Regarding B9, the “ADCC EC50” value is 33.3 nM.

Consider B10, for which the “ADCC EC50” value worked out at 4.6 nM.

On to B11, for which the “ADCC EC50” value is 65.9 nM.

Consider B12, for which the “ADCC EC50” value stood at 48.9 nM.

Take B13: the “ADCC EC50” value is 45 nM.

As for B14, the “ADCC EC50” value was found to be 79.4 nM.

The target is the same in a further assay. As to the kind of experiment: cell-based or functional assay. The source holds these as a separate data set.
Regarding B15, the “ADCC EC50” value came to 42.7 nM and the “ADCC Fold-improved (against AB-008873)” value was 0.81 fold.

In the case of B16, the “ADCC EC50” value turned out to be 12.8 nM and the “ADCC Fold-improved (against AB-008873)” value is 2.72 fold.

In the case of B17, the “ADCC EC50” value was found to be 4.3 nM and the “ADCC Fold-improved (against AB-008873)” value is 8.09 fold.

For the molecule B18, the “ADCC EC50” value amounted to 25.3 nM and the “ADCC Fold-improved (against AB-008873)” value stood at 1.38 fold.

With B19, the “ADCC EC50” value is 73.3 nM and the “ADCC Fold-improved (against AB-008873)” value was determined as 0.47 fold.

Regarding B20, the “ADCC EC50” value was determined as 34.6 nM and the “ADCC Fold-improved (against AB-008873)” value came out at 1.01 fold.

Turning to B21, the “ADCC EC50” value is 28.9 nM and the “ADCC Fold-improved (against AB-008873)” value stood at 1.2 fold.

Turning to B22, the “ADCC EC50” value came out at 14.5 nM and the “ADCC Fold-improved (against AB-008873)” value was 2.4 fold.

The target is the same in a further assay. Kind of assay: cell-based or functional assay. The source holds these as a separate data set.
For the molecule B23, the “ADCC - EC50 (nM), Trial 1, A549” value stood at 0.21 nM.

Another assay shares this target. As to the kind of experiment: flow cytometry on A549 cells. As to the method: (§1) Surface binding of the antibodies to in vitro grown cell lines was assessed by flow cytometry. Tumor cells were detached from their culture plate using Versene and counted. Cells were staining in BSA-containing buffer with primary antibody for 30 minutes at 4° C. with shaking. Following, cells were washed and stained with secondary PE-labeled antibody for 30 minutes at 4° C. with shaking. Before analysis on an Intellicyt iQue3 scanner, cells were counterstained with DAPI. MedFI values from live, single cells was expressed as fold over isotype control.
For the molecule B1, the EC50 came out at 5.5 nM and the “Flow Delta” value was 670000.

Consider B2, for which a half-maximal effect (EC50) was put at 9.6 nM and the “Flow Delta” value was 568000.

In the case of B3, the midpoint of the response, the EC50, lay at 11.5 nM and the “Flow Delta” value was 407000.

As to B4, the “Flow Delta” value came out at 0 and the binding result is listed as “no binding (tested: tested up to 1 µM)”.

As for B5, the EC50 was 6.8 nM and the “Flow Delta” value is 578000.

A further assay shares this target. Kind of assay: cell-based or functional assay. The source holds these as a separate data set.
In the case of B24, the “ADCC Delta activity (%), A549” value came to 1.31% and the “ADCP Delta activity (%), A549” value was determined as 12.8%.

For B25, the “ADCC Delta activity (%), A549” value is 14.5% and the “ADCP Delta activity (%), A549” value was 17.9%.

For the molecule B26, the “ADCC Delta activity (%), A549” value was determined as 0.4% and the “ADCP Delta activity (%), A549” value turned out to be 11.5%.

In the case of B27, the “ADCC Delta activity (%), A549” value was found to be 5.06% and the “ADCP Delta activity (%), A549” value worked out at 17.3%.

For a further assay the target is unchanged. Kind of assay: flow cytometry, A549 cells. Here is the method:
as §1
Consider B24, for which the “Flow Delta activity (MedFI)” value was found to be 29500 MedFI.

B25: the “EC50 (read off the curve)” value was ~20 nM and the “Flow Delta activity (MedFI)” value was 231000 MedFI.

Turning to B26, the “Flow Delta activity (MedFI)” value worked out at 12700 MedFI.

As for B27, the “Flow Delta activity (MedFI)” value worked out at 75100 MedFI.
